{
  "source": "the supplement of paper PMC9112550",
  "about": "“Optimization of the antimicrobial peptide Bac7 by deep mutational scanning” (BMC Biology, 2022);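 also: peptides expressed intracellularly from a pBAD plasmid library in pooled LB shake-flask culture, induced with 0.3% L-arabinose, DNA abundance read by NGS, three biological replicates, DESeq2 with apeglm shrinkage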",
  "data": [
    {"tested_on": "Escherichia coli TOP10", "experiment": "shrunken log2 fold change of peptide-encoding DNA abundance (4.5 h post-induction vs induction); higher = less antimicrobial activity (less host growth inhibition)", "settings": "time post-induction: 4.5 h; library: site-saturation at positions 5, 18, 19, 20", "values": [
      {"sequence": "RRIRVRPPRLPRPRPRPSTKPRP", "shrunken log2 fold change": -0.213},
      {"sequence": "RRIRLRPPRLPRPRPRPKCGPRP", "shrunken log2 fold change": 0.338},
      {"sequence": "RRIRARPPRLPRPRPRPDMKPRP", "shrunken log2 fold change": -0.0184},
      {"sequence": "RRIRGRPPRLPRPRPRPGRCPRP", "shrunken log2 fold change": 1.09},
      {"sequence": "RRIRHRPPRLPRPRPRPPQSPRP", "shrunken log2 fold change": 0.193},
      {"sequence": "RRIRKRPPRLPRPRPRPKFQPRP", "shrunken log2 fold change": 0.343},
      {"sequence": "RRIRHRPPRLPRPRPRPMVVPRP", "shrunken log2 fold change": 0.00198},
      {"sequence": "RRIRNRPPRLPRPRPRPGMEPRP", "shrunken log2 fold change": -0.0302},
      {"sequence": "RRIRMRPPRLPRPRPRPHMRPRP", "shrunken log2 fold change": 0.509},
      {"sequence": "RRIRHRPPRLPRPRPRPLLWPRP", "shrunken log2 fold change": 0.0832},
      {"sequence": "RRIRERPPRLPRPRPRPRTGPRP", "shrunken log2 fold change": 0.0617},
      {"sequence": "RRIRRRPPRLPRPRPRPVQHPRP", "shrunken log2 fold change": -0.0478},
      {"sequence": "RRIRYRPPRLPRPRPRPSIDPRP", "shrunken log2 fold change": -0.519},
      {"sequence": "RRIRLRPPRLPRPRPRPEPCPRP", "shrunken log2 fold change": 0.0808},
      {"sequence": "RRIRARPPRLPRPRPRPEKEPRP", "shrunken log2 fold change": 0.248},
      {"sequence": "RRIRSRPPRLPRPRPRPNNGPRP", "shrunken log2 fold change": -0.035},
      {"sequence": "RRIRNRPPRLPRPRPRPPTRPRP", "shrunken log2 fold change": 0.29},
      {"sequence": "RRIRARPPRLPRPRPRPNQWPRP", "shrunken log2 fold change": 0.724},
      {"sequence": "RRIRHRPPRLPRPRPRPNVTPRP", "shrunken log2 fold change": -0.0118},
      {"sequence": "RRIRRRPPRLPRPRPRPVWQPRP", "shrunken log2 fold change": 0.395},
      {"sequence": "RRIRDRPPRLPRPRPRPSNRPRP", "shrunken log2 fold change": -0.052},
      {"sequence": "RRIRMRPPRLPRPRPRPFDTPRP", "shrunken log2 fold change": -0.0634},
      {"sequence": "RRIRWRPPRLPRPRPRPDYTPRP", "shrunken log2 fold change": -0.0601},
      {"sequence": "RRIRGRPPRLPRPRPRPLPLPRP", "shrunken log2 fold change": 0.627},
      {"sequence": "RRIRWRPPRLPRPRPRPCEHPRP", "shrunken log2 fold change": 0.0123},
      {"sequence": "RRIRKRPPRLPRPRPRPFACPRP", "shrunken log2 fold change": -0.0138},
      {"sequence": "RRIRCRPPRLPRPRPRPKNEPRP", "shrunken log2 fold change": -0.1},
      {"sequence": "RRIRYRPPRLPRPRPRPGFPPRP", "shrunken log2 fold change": "-6.24e-05"},
      {"sequence": "RRIRQRPPRLPRPRPRPCWDPRP", "shrunken log2 fold change": -0.155},
      {"sequence": "RRIRCRPPRLPRPRPRPDCVPRP", "shrunken log2 fold change": 0.184},
      {"sequence": "RRIRCRPPRLPRPRPRPSWAPRP", "shrunken log2 fold change": 0.18},
      {"sequence": "RRIRHRPPRLPRPRPRPVFMPRP", "shrunken log2 fold change": -0.311},
      {"sequence": "RRIRVRPPRLPRPRPRPCYPPRP", "shrunken log2 fold change": -0.327},
      {"sequence": "RRIRRRPPRLPRPRPRPDQRPRP", "shrunken log2 fold change": -0.0913},
      {"sequence": "RRIRMRPPRLPRPRPRPMHHPRP", "shrunken log2 fold change": 0.0123},
      {"sequence": "RRIRKRPPRLPRPRPRPTCQPRP", "shrunken log2 fold change": 0.333},
      {"sequence": "RRIRHRPPRLPRPRPRPFSSPRP", "shrunken log2 fold change": 0.107},
      {"sequence": "RRIRLRPPRLPRPRPRPLLSPRP", "shrunken log2 fold change": -0.327},
      {"sequence": "RRIRDRPPRLPRPRPRPIWTPRP", "shrunken log2 fold change": 0.0557},
      {"sequence": "RRIRRRPPRLPRPRPRPIPHPRP", "shrunken log2 fold change": 0.822},
      {"sequence": "RRIRLRPPRLPRPRPRPKEAPRP", "shrunken log2 fold change": -0.011},
      {"sequence": "RRIRRRPPRLPRPRPRPNSCPRP", "shrunken log2 fold change": -0.0116},
      {"sequence": "RRIRERPPRLPRPRPRPIHWPRP", "shrunken log2 fold change": -0.0429},
      {"sequence": "RRIRPRPPRLPRPRPRPCHWPRP", "shrunken log2 fold change": 0.0406},
      {"sequence": "RRIRCRPPRLPRPRPRPNAGPRP", "shrunken log2 fold change": -0.0355},
      {"sequence": "RRIRQRPPRLPRPRPRPTNDPRP", "shrunken log2 fold change": -0.296},
      {"sequence": "RRIRARPPRLPRPRPRPDQDPRP", "shrunken log2 fold change": 0.605},
      {"sequence": "RRIRRRPPRLPRPRPRPGSNPRP", "shrunken log2 fold change": 0.0402},
      {"sequence": "RRIRRRPPRLPRPRPRPWLKPRP", "shrunken log2 fold change": 0.127},
      {"sequence": "RRIRSRPPRLPRPRPRPGFSPRP", "shrunken log2 fold change": -0.0153},
      {"sequence": "RRIRVRPPRLPRPRPRPERTPRP", "shrunken log2 fold change": -0.111},
      {"sequence": "RRIRSRPPRLPRPRPRPPESPRP", "shrunken log2 fold change": 0.877},
      {"sequence": "RRIRSRPPRLPRPRPRPLNFPRP", "shrunken log2 fold change": -0.305},
      {"sequence": "RRIRTRPPRLPRPRPRPVFQPRP", "shrunken log2 fold change": -0.0322},
      {"sequence": "RRIRCRPPRLPRPRPRPGKVPRP", "shrunken log2 fold change": 0.181},
      {"sequence": "RRIRLRPPRLPRPRPRPRHYPRP", "shrunken log2 fold change": -0.127},
      {"sequence": "RRIRYRPPRLPRPRPRPAMWPRP", "shrunken log2 fold change": -0.0439},
      {"sequence": "RRIRPRPPRLPRPRPRPCEMPRP", "shrunken log2 fold change": 2.11},
      {"sequence": "RRIRVRPPRLPRPRPRPKCHPRP", "shrunken log2 fold change": -0.242},
      {"sequence": "RRIRHRPPRLPRPRPRPVKNPRP", "shrunken log2 fold change": 0.0467},
      {"sequence": "RRIRARPPRLPRPRPRPGYYPRP", "shrunken log2 fold change": -0.254},
      {"sequence": "RRIRLRPPRLPRPRPRPGWQPRP", "shrunken log2 fold change": 0.175},
      {"sequence": "RRIRFRPPRLPRPRPRPRHPPRP", "shrunken log2 fold change": 0.0568},
      {"sequence": "RRIRCRPPRLPRPRPRPWTCPRP", "shrunken log2 fold change": -0.323},
      {"sequence": "RRIRDRPPRLPRPRPRPKFIPRP", "shrunken log2 fold change": -0.14},
      {"sequence": "RRIRSRPPRLPRPRPRPWCCPRP", "shrunken log2 fold change": -0.544},
      {"sequence": "RRIRVRPPRLPRPRPRPIHYPRP", "shrunken log2 fold change": -0.137},
      {"sequence": "RRIRARPPRLPRPRPRPAVCPRP", "shrunken log2 fold change": 0.442},
      {"sequence": "RRIRVRPPRLPRPRPRPEFCPRP", "shrunken log2 fold change": 0.267},
      {"sequence": "RRIRCRPPRLPRPRPRPEEQPRP", "shrunken log2 fold change": -0.0372},
      {"sequence": "RRIRDRPPRLPRPRPRPNGWPRP", "shrunken log2 fold change": 0.612},
      {"sequence": "RRIRLRPPRLPRPRPRPKACPRP", "shrunken log2 fold change": 0.16},
      {"sequence": "RRIRGRPPRLPRPRPRPPEHPRP", "shrunken log2 fold change": 0.853},
      {"sequence": "RRIRFRPPRLPRPRPRPPKYPRP", "shrunken log2 fold change": -0.0263},
      {"sequence": "RRIRLRPPRLPRPRPRPKRVPRP", "shrunken log2 fold change": -0.116}
    ]}
  ]
}
